In patent US20130273053A1 (UNIVERSITY OF LEICESTER, published 2013):

Target: T1, human MASP-3 (human)
T1 construct: also called MASP-3 antigen
T1 chain: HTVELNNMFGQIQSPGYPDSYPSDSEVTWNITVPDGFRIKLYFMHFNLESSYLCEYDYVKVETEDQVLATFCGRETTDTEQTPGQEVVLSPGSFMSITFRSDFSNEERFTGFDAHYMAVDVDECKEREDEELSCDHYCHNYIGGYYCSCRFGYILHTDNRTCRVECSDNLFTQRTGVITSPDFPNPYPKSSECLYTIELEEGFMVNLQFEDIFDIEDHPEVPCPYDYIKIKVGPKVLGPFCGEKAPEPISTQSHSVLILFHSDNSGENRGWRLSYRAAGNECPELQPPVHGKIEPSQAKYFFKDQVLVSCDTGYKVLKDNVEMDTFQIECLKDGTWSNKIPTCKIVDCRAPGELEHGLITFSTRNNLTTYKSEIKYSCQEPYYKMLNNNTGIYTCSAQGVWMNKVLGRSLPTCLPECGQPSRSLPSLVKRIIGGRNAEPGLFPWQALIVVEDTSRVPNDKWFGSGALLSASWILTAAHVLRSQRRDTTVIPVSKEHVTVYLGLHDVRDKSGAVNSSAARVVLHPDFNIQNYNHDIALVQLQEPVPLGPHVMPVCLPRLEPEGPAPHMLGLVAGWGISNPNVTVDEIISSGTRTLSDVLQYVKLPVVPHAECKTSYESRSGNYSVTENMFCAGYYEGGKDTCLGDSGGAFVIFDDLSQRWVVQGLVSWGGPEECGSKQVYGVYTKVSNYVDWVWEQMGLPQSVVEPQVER
Assay: saturation binding, DTLacO cells stained with fluorescent-labeled soluble antigen
Description: Recombinant antibodies were generated by cloning PCR-amplified V regions into a vector that supported expression of human IgG1 in 293F cells (Yabuki et al., PLoS ONE, 7(4):e36032 (2012)).

- Kd: ~31 nM
B1: MASP-3 specific clone M3J5 (antibody, IgM, V domains shown)
VH: AVTLDESGGGLQTPGGGLSLVCKASGFTFSSYAMGWMRQAPGKGLEYVAGIRSDGSFTLYATAVKGRATISRDNGQSTVRLQLNNLRAEDTATYFCTRSGNVGDIDAWGHGTEVIVSS
VL: ALTQPASVSANPGETVKITCSGGYSGYAGSYYYGWYQQKAPGSAPVTLIYYNNKRPSDIPSRFSGSLSGSTNTLTITGVRADDEAVYFCGSADNSGAAFGAGTTLTVL
notes: Chicken V regions; also called Clone 5; DTLacO clone M3J5
